Results on four molecules are retold here after patent US20260226104A1 (Dana-Farber, published 2026).

Bridges are numbered along the chain shown (N, C = ends). Where no end group is shown, it is not given here. [ ]: non-standard residue; d: D form. The star is where a group is joined. D‑NA = N-terminal D-nipecotic acid moiety terminating in acrylamide (cysteine-reactive warhead); Biotin = O=C1N[C@H]2[C@H](CS[C@H]2CCCCC(=O)*)N1; R8 = C=CCCCCCC[C@@](C)(N)C(=O)O; S5 = C=CCCC[C@](C)(N)C(=O)O

One assay deals with T1, full length HA-BFL1 (human, UniProt Q16548 1-175).
T1 construct: also called HA-tagged full-length BFL-1; expressed full-length BFL-1; not shown: HA tag
T1 sequence: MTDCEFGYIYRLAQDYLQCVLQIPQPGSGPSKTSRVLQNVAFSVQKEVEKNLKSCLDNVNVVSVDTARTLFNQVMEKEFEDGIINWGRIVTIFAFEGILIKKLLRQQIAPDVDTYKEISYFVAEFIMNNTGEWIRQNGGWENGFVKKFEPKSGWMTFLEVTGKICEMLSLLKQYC
Nature of the assay: 293T cells treated with 20 µM NOXA SAHB for 12 hours; anti-HA western of lysates. An excerpt: Of note, native BFL-1 runs at a higher molecular weight than recombinant or expressed BFL-1.

Assay [1] has as its target T2, His-BFL-1ΔC (human, UniProt Q16548 1-151).
T2 construct: also called WT His-BFL-1ΔC; wild-type BFL-1 construct; not shown: N-terminal hexahistidine tag (pET17b)
T2 sequence: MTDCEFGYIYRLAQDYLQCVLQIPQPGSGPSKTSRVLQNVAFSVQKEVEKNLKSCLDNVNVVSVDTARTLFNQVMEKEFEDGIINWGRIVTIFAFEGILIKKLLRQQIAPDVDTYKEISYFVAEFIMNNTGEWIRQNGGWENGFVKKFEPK
As to the kind of experiment: in vitro covalent conjugation; reducing and denaturing gel electrophoresis.

Assay [2] addresses T3, recombinant full-length BFL-1 (human, UniProt Q16548 1-175).
T3 construct: not shown: N-terminal hexahistidine tag
T3 sequence: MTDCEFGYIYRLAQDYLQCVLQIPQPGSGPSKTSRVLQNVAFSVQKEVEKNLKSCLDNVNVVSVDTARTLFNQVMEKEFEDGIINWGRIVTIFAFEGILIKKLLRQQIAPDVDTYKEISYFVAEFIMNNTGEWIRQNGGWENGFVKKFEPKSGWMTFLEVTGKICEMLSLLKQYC
The assay is described as above.

In the next assay the target is T4, MCL-1ΔNΔC (human, UniProt Q07820 172-329).
T4 construct: As printed for the fluorescence polarization assay
Nature of the assay: competitive fluorescence polarization against FITC-BID BH3. Here is the method: (§1) The warhead-bearing D-NA-NOXA-15 R31E SAHB was only able to compete with FITC-BID BH3 for binding to BFL-1ΔC C4S/C19S (FIG. 20), and this activity was dependent on the presence of Cys55 in the BH3-binding pocket, as this effect was not observed with BFL-1ΔC C4S/C19S/C55S (FIG. 21).
(§2) Fluorescence polarization (FP) assays were performed as previously described (Pitter et al., 2008 (supra)). Briefly, direct binding curves were first generated by FITC-BID BH3 (25 nM) with serial dilutions of anti-apoptotic protein, and FP was measured at 5 min on a SpectraMax M5 microplate reader (Molecular Devices). For competition assays, a serial dilution of acetylated or warhead-bearing NOXA SAHB was added to the indicated recombinant protein at ~EC75 concentration, as determined by the direct binding assay. FITC-BID BH3 (25 nM) was then added and fluorescence polarization was measured at equilibrium. IC50 values were calculated by nonlinear regression analysis of competitive binding curves using PRISM software (GraphPad).

A further assay concerns the target T5, His-BFL-1ΔC C4S/C19S (human, UniProt Q16548 1-151).
T5 construct: also called BFL-1 C4S/C19S; not shown: N-terminal hexahistidine tag (pET17b)
T5 chain: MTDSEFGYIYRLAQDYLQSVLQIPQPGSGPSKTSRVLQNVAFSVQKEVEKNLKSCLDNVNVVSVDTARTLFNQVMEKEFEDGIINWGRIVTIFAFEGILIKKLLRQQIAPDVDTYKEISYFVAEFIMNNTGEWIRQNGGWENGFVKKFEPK
Described as above. The procedure:
as §1, §2

Assay [3] addresses T2, His-BFL-1ΔC. Nature of the assay: streptavidin pull-down of biotinylated SAHB from an equimolar mixture of recombinant GST-MCL-1ΔNΔC, BCL-XLΔC and His-BFL-1ΔC; silver stain. The procedure: The biotinylated D-NA-NOXA-15 F32A SAHB or corresponding acetylated construct was incubated in an equimolar mixture with recombinant BFL-1, BCL-XL, and MCL-1, and then subjected to streptavidin pull-down. […] Additionally, the preferential interactions of these peptides were assessed with endogenous protein in lysates from the A375P melanoma cell line.
WT His-BFL-1ΔC, BCL-XLΔC (tagless), and GST-MCL-1ΔNΔC (1 μM each) were combined and incubated with 3 mM DTT in PBS for thirty minutes at room temperature. Mixtures were treated with vehicle or the indicated C-terminally biotinylated NOXA SAHB (1 μM) for four hours and were then added to 30 μL PBS-washed high-capacity streptavidin (SA) agarose beads (Thermo Fisher Pierce) and incubated with rotation at room temperature for two hours. The beads were then washed three times with NP-40 lysis buffer (1% NP-40, 50 mM Tris pH 8, 100 mM NaCl, 2.5 mM MgCl2) and three times with PBS. To elute bound protein, beads were boiled for ten minutes with 10% SDS containing 10 mg/mL biotin. After elution, samples were boiled with 3×LDS and 2M DTT for twenty minutes. Gel electrophoresis using a 12% Bis-Tris gel was conducted on inputs (2%) and eluates ([…]) and gels were developed using the Pierce silver staining kit (Thermo Fisher).

T4 sequence (Q07820 172-329, stated change not applied): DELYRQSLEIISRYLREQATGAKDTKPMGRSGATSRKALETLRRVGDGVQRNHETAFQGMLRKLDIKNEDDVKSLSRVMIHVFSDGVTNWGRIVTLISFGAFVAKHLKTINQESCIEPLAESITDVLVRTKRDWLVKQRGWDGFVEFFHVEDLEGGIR

B1: D-NA-NOXA-15 F32A (peptide)
peptide: {D‑NA}-AT[R8]LRRAGD[S5]LNFRQ
modifications: staple 3-10
notes: also called D-NA-NOXA SAHB-15 F32A; cysteine-reactive NOXA-15 F32A SAHB
With B1, the binding result (with full length HA-BFL1; with His-BFL-1ΔC [1]; in assay [2]) was “binds” throughout.

B2: Ac-NOXA-15 R31E (peptide)
peptide: Ac-AT[R8]LREFGD[S5]LNFRQ
modifications: staple 3-10
notes: also called acetylated NOXA-15 R31E SAHB; acetylated counterpart of D-NA-NOXA-15 R31E
For B2, the binding result in the assay with MCL-1ΔNΔC is reported as “binds”.

B3: D-NA-NOXA-15 R31E (peptide)
peptide: {D‑NA}-AT[R8]LREFGD[S5]LNFRQ
modifications: staple 3-10
notes: also called D-NA-NOXA SAHB-15 R31E; cysteine-reactive NOXA-15 R31E SAHB
Turning to B3, the binding result (with full length HA-BFL1; with His-BFL-1ΔC [1]; in assay [2]; with MCL-1ΔNΔC; with His-BFL-1ΔC C4S/C19S) was “binds” in each case.

B4: biotinylated Ac-NOXA-15 R31E SAHB (peptide)
peptide: Ac-AT[R8]LREFGD[S5]LNFRQK(Biotin)
modifications: staple 3-10
notes: also called acetylated counterpart of D-NA-NOXA-15 R31E
With B4, the binding result with His-BFL-1ΔC [3] is listed as “no binding (tested: 1 µM)”.
